From paper PMC8519434, “The structure of nontypeable Haemophilus influenzae SapA in a closed conformation reveals a constricted ligand-binding cavity and a novel RNA binding motif” (PLoS ONE, 2021)

How the values were obtained:
SapA = target: T1, SapA (Haemophilus influenzae, UniProt Q4QL73); test: ITC (stoichiometry fixed to […]), crystal structure by hemin soaking ([…] Å), native PAGE shift; type: binding
T1 construct: residues 33 to 560, without the predicted signal peptide

[1] = system: SapA Q85S R101S (nontypeable Haemophilus influenzae 86-028NP); test: EMSA (agarose, decrease of rRNA bands)
[2] = system: SapA R101S (nontypeable Haemophilus influenzae 86-028NP); test: EMSA (agarose, decrease of rRNA bands)
[3] = target: T2, SapA (nontypeable Haemophilus influenzae 86-028NP) (UniProt Q4QL73); test: EMSA (agarose, decrease of rRNA bands)
T2 sequence: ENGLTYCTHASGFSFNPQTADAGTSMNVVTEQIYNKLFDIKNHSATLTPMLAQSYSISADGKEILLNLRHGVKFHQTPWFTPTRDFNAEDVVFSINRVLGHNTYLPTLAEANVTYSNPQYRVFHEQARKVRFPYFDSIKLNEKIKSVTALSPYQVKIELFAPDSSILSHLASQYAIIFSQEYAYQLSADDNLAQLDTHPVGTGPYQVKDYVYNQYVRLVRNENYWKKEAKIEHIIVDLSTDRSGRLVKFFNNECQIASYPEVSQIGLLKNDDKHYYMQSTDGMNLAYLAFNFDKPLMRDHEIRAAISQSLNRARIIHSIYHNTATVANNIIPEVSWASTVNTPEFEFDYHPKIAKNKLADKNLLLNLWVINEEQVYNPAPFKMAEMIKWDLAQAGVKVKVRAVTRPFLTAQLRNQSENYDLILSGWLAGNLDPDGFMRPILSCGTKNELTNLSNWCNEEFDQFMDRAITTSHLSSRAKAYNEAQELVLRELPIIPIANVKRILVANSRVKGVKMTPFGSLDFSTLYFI

Compound | Kd (SapA) [µM] | Kd [1] [µM] | Kd [2] [µM] | Kd [3] [µM]
C=CC1=C(C)C2=Cc3c(C=C)c(C)c4[n]3[Fe][n]3c(c(C)c(CCC(=O)O)c3=CC3=NC(=C4)C(C)=C3CCC(=O)O)=CC1=N2 [heme] | 282 ± 18.3 |  |  | 
E. coli DH5alpha rRNA (16S + 23S bands of total RNA) |  | 23 | 7.7 | 4.4
